Data reported in patent publication US7135295.

Target: biotinylated DNP-Ab (anti-DNP antibody modified with biotinamidocaproate N-hydroxysuccinimide ester)
Experiment: quartz crystal microbalance; avidin injected onto biotinylated DNP-Ab held on the dinitrosalicylic acid antigen monolayer

avidin (from UniProt P02701 25-152)
crystal frequency change Δf: -120 Hz
